In patent US20240400715A1 (VIBRANT PHARMA, published 2024):
Where a chain is given by its changes, count along the chain named.

B1: 210 (Fab (Light)-Knob+Fab (Heavy)-Hole-CEA) (bispecific antibody, human IgG4 S228P, kappa, F234A L235A)
light: QAVVTQESALTTSPGETVTLTCRSSTGAVTTSNYANWVQEKPDHLFTGLIGGTNKRAPGVPARFSGSLIGDKAALTITGAQTEDEAIYFCALWYSNLWVFGGGTKVEIKRTVAAPSVFIFPPSDEQLKSGTASVVCLLNNFYPREAKVQWKVDNALQSGNSQESVTEQDSKDSTYSLSSTLTLSKADYEKHKVYACEVTHQGLSSPVTKSFNRGECESKYGPPCPPCPAPEAAGGPSVFLFPPKPKDTLMISRTPEVTCVVVDVSQEDPEVQFNWYVDGVEVHNAKTKPREEQFNSTYRVVSVLTVLHQDWLNGKEYKCKVSNKGLPSSIEKTISKAKGQPREPQVYTLPPCQEEMTKNQVSLWCLVKGFYPSDIAVEWESNGQPENNYKTTPPVLDSDGSFFLYSRLTVDKSRWQEGNVFSCSVMHEALHNHYTQKSLSLSL
heavy: EVKLLESGGGLVQPKGSLKLSCAASGFTFNTYAMNWVRQAPGKGLEWVARIRSKYNNYATYYADSVKDRFTISRDDSQSILYLQMNNLKTEDTAMYYCVRHGNFGNSYVSWFAYWGQGTLVTVSSASTKGPSVFPLAPCSRSTSESTAALGCLVKDYFPEPVTVSWNSGALTSGVHTFPAVLQSSGLYSLSSVVTVPSSSLGTKTYTCNVDHKPSNTKVDKRVESKYGPPCPPCPAPEAAGGPSVFLFPPKPKDTLMISRTPEVTCVVVDVSQEDPEVQFNWYVDGVEVHNAKTKPREEQFNSTYRVVSVLTVLHQDWLNGKEYKCKVSNKGLPSSIEKTISKAKGQPREPQVCTLPPSQEEMTKNQVSLSCAVKGFYPSDIAVEWESNGQPENNYKTTPPVLDSDGSFFLVSRLTVDKSRWQEGNVFSCSVMHEALHNRFTQKSLSLSLGGGGSGGGGSEVQLVESGGGFVQAGESLTLSCTSSTLTFTPYRMAWYRQAPGKQRDLVADISSGDGRTTNYADFAKGRFTISRDNIKNTVFLRMTNLKPEDTAVYYCNTFVSFVGIARSWGQGTQVTVSS
notes: two-chain format: VL-CL fused to knob Fc
B2: 203 (CEA-Fab-Knob-+Hole) (bispecific antibody, human IgG4 S228P, kappa, F234A L235A)
heavy: EVKLLESGGGLVQPKGSLKLSCAASGFTFNTYAMNWVRQAPGKGLEWVARIRSKYNNYATYYADSVKDRFTISRDDSQSILYLQMNNLKTEDTAMYYCVRHGNFGNSYVSWFAYWGQGTLVTVSSASTKGPSVFPLAPCSRSTSESTAALGCLVKDYFPEPVTVSWNSGALTSGVHTFPAVLQSSGLYSLSSVVTVPSSSLGTKTYTCNVDHKPSNTKVDKRVESKYGPPCPPCPAPEAAGGPSVFLFPPKPKDTLMISRTPEVTCVVVDVSQEDPEVQFNWYVDGVEVHNAKTKPREEQFNSTYRVVSVLTVLHQDWLNGKEYKCKVSNKGLPSSIEKTISKAKGQPREPQVYTLPPCQEEMTKNQVSLWCLVKGFYPSDIAVEWESNGQPENNYKTTPPVLDSDGSFFLYSRLTVDKSRWQEGNVFSCSVMHEALHNHYTQKSLSLSL
chain: ESKYGPPCPPCPAPEAAGGPSVFLFPPKPKDTLMISRTPEVTCVVVDVSQEDPEVQFNWYVDGVEVHNAKTKPREEQFNSTYRVVSVLTVLHQDWLNGKEYKCKVSNKGLPSSIEKTISKAKGQPREPQVCTLPPSQEEMTKNQVSLSCAVKGFYPSDIAVEWESNGQPENNYKTTPPVLDSDGSFFLVSRLTVDKSRWQEGNVFSCSVMHEALHNRFTQKSLSLSL
light: EVQLVESGGGFVQAGESLTLSCTSSTLTFTPYRMAWYRQAPGKQRDLVADISSGDGRTTNYADFAKGRFTISRDNIKNTVFLRMTNLKPEDTAVYYCNTFVSFVGIARSWGQGTQVTVSSGGGGSGGGGSQAVVTQESALTTSPGETVTLTCRSSTGAVTTSNYANWVQEKPDHLFTGLIGGTNKRAPGVPARFSGSLIGDKAALTITGAQTEDEAIYFCALWYSNLWVFGGGTKVEIKRTVAAPSVFIFPPSDEQLKSGTASVVCLLNNFYPREAKVQWKVDNALQSGNSQESVTEQDSKDSTYSLSSTLTLSKADYEKHKVYACEVTHQGLSSPVTKSFNRGEC
notes: VHH fused before VL of the light chain
B3: 204 (Knob+CEA-Fab-Hole) (bispecific antibody, human IgG4 S228P, kappa, F234A L235A)
chain: B2 chain with C131Y, S136C, S148W, A150L, V189Y, R217H, F218Y
heavy: B2 heavy with Y354C, C359S, W371S, L373A, Y412V, H440R, Y441F
light: B2 light
notes: as for B2
B4: 206 (Knob+CEA-Fab-Hole) (bispecific antibody, human IgG4 S228P, kappa, F234A L235A)
chain: B2 chain with C131Y, S136C, S148W, A150L, V189Y, R217H, F218Y
heavy: EVQLVESGGGFVQAGESLTLSCTSSTLTFTPYRMAWYRQAPGKQRDLVADISSGDGRTTNYADFAKGRFTISRDNIKNTVFLRMTNLKPEDTAVYYCNTFVSFVGIARSWGQGTQVTVSSGGGGSGGGGSEVKLLESGGGLVQPKGSLKLSCAASGFTFNTYAMNWVRQAPGKGLEWVARIRSKYNNYATYYADSVKDRFTISRDDSQSILYLQMNNLKTEDTAMYYCVRHGNFGNSYVSWFAYWGQGTLVTVSSASTKGPSVFPLAPCSRSTSESTAALGCLVKDYFPEPVTVSWNSGALTSGVHTFPAVLQSSGLYSLSSVVTVPSSSLGTKTYTCNVDHKPSNTKVDKRVESKYGPPCPPCPAPEAAGGPSVFLFPPKPKDTLMISRTPEVTCVVVDVSQEDPEVQFNWYVDGVEVHNAKTKPREEQFNSTYRVVSVLTVLHQDWLNGKEYKCKVSNKGLPSSIEKTISKAKGQPREPQVCTLPPSQEEMTKNQVSLSCAVKGFYPSDIAVEWESNGQPENNYKTTPPVLDSDGSFFLVSRLTVDKSRWQEGNVFSCSVMHEALHNRFTQKSLSLSL
light: QAVVTQESALTTSPGETVTLTCRSSTGAVTTSNYANWVQEKPDHLFTGLIGGTNKRAPGVPARFSGSLIGDKAALTITGAQTEDEAIYFCALWYSNLWVFGGGTKVEIKRTVAAPSVFIFPPSDEQLKSGTASVVCLLNNFYPREAKVQWKVDNALQSGNSQESVTEQDSKDSTYSLSSTLTLSKADYEKHKVYACEVTHQGLSSPVTKSFNRGEC
notes: VHH fused before VH of the heavy chain
B5: 209 (Fab (Light)-Knob-CEA+Fab (Heavy)-Hole) (bispecific antibody, human IgG4 S228P, kappa, F234A L235A)
light: QAVVTQESALTTSPGETVTLTCRSSTGAVTTSNYANWVQEKPDHLFTGLIGGTNKRAPGVPARFSGSLIGDKAALTITGAQTEDEAIYFCALWYSNLWVFGGGTKVEIKRTVAAPSVFIFPPSDEQLKSGTASVVCLLNNFYPREAKVQWKVDNALQSGNSQESVTEQDSKDSTYSLSSTLTLSKADYEKHKVYACEVTHQGLSSPVTKSFNRGECESKYGPPCPPCPAPEAAGGPSVFLFPPKPKDTLMISRTPEVTCVVVDVSQEDPEVQFNWYVDGVEVHNAKTKPREEQFNSTYRVVSVLTVLHQDWLNGKEYKCKVSNKGLPSSIEKTISKAKGQPREPQVYTLPPCQEEMTKNQVSLWCLVKGFYPSDIAVEWESNGQPENNYKTTPPVLDSDGSFFLYSRLTVDKSRWQEGNVFSCSVMHEALHNHYTQKSLSLSLGGGGSGGGGSEVQLVESGGGFVQAGESLTLSCTSSTLTFTPYRMAWYRQAPGKQRDLVADISSGDGRTTNYADFAKGRFTISRDNIKNTVFLRMTNLKPEDTAVYYCNTFVSFVGIARSWGQGTQVTVSS
heavy: B2 heavy with Y354C, C359S, W371S, L373A, Y412V, H440R, Y441F
notes: two-chain format: VL-CL fused to knob Fc and VHH
B6: 205 (CEA-Fab-Knob-+Hole) (bispecific antibody, human IgG4 S228P, kappa, F234A L235A)
heavy: B4 heavy with C484Y, S489C, S501W, A503L, V542Y, R570H, F571Y
chain: B2 chain
light: B4 light
notes: as for B4
B7: 208 (Fab (Heavy)-Knob+Fab (Light)-Hole-CEA) (bispecific antibody, human IgG4 S228P, kappa, F234A L235A)
heavy: B2 heavy
light: B5 light with Y347C, C352S, W364S, L366A, Y405V, H433R, Y434F
notes: two-chain format: VL-CL fused to hole Fc and VHH

The binders below were run against T1, human CD3ε/δ (ACRO systems, CDD-H52W1) (human, UniProt P07766 23-126; P04234 22-105) (assay: serum-stability ELISA, Day 7 vs Day 0).
T1 construct: bought recombinant heterodimer; also called human CD3 epsilon/delta; Human CD3ε/CD3δ
Procedure: (§1) The samples to be tested were centrifuged at 4° C. at 12000 rpm for 30 minutes to remove the precipitate. 200 μl of each sample to be tested (0.5 mg/ml) was collected in a 1.5 ml Eppendorf tube. An equal volume of human serum (GEMINI, H2OYOOK) was added, mixed thoroughly, and the mixture was incubated in a 37° C. constant temperature CO₂ incubator. For a total of 10 days, 40 μl samples was aspirated every day and stored at −20° C.
(§2) Enzyme-linked immunosorbent assay (ELISA) was used to test the bispecific antibodies' binding to human CEA and human CD3 epsilon/delta antigen. The steps are as follows: the antigen human CD3ε/δ (ACRO systems, CDD-H52W1) and the recombinant tumor antigen human CEA (CEACAM-5/CD66e, ACRO systems, CE5-H5226) were diluted to 1 μg/ml with PBS, and then added to the 96-well plate at 100 μl per well. The wells were coated overnight at 4° C. After washing 3 times with 0.05% PBST, 200 μl 5% skimmed milk powder was added to each well and incubated at 37° C. for 2 h. After washing 3 times with 0.05% PBST, 100 μl primary antibody sample (10 μg/ml) was added to each well, and incubated at 37° C. for 2 h. After washing 3 times with 0.05% PBST, 100 μl (1:6000) diluted secondary antibody goat anti-human Fc-HRP (sigma, A2170) was added to each well, incubated at room temperature for 1 h. After washing 8 times with 0.05% PBST, 50 μl TMB color developing solution was added to each well, and incubated at room temperature for 10-15 min. 50 μl 1 mM HCl was added to each well to stop the color development. 450 nm Absorbance (OD) was read.
(§3) The binding of antibodies to antigen was calculated according to the following formula: Binding (%)=[(ODdayn−ODb)/(ODday0−ODb)]×100%. ODdayn: experimental well (the protein was stored in the serum for n days); ODday0: control well (the protein was not stored in the serum); ODb: blank well (no primary antibody added).

Row | Binding % | Binder
1 | 102% | B1
2 | 106% | B2
3 | 103% | B3
4 | 100% | B4
5 | 109% | B5
6 | 105% | B6
7 | 95.9% | B7

What follows are binders tested against T1, human CD3ε/δ (ACRO systems, CDD-H52W1) (assay: serum-stability ELISA, Day 5 vs Day 0).
Procedure: as §1, §2, §3

Row | Binding % | Binder
8 | 97.3% | B1
9 | 102% | B2
10 | 99.8% | B3
11 | 102% | B4
12 | 108% | B5
13 | 117% | B6
14 | 100% | B7

Each binder was assayed against T1, human CD3ε/δ (ACRO systems, CDD-H52W1) (assay: serum-stability ELISA, Day 0 (reference)).

Row | Binding % | Binder
15 | 100% | B1
16 | 100% | B2
17 | 100% | B3
18 | 100% | B4
19 | 100% | B5
20 | 100% | B6
21 | 100% | B7

The binders below were run against T1, human CD3ε/δ (ACRO systems, CDD-H52W1) (assay: serum-stability ELISA, Day 10 vs Day 0).
Procedure: as §1, §2, §3

Row | Binding % | Binder
22 | 101% | B1
23 | 101% | B2
24 | 99.4% | B3
25 | 91.6% | B4
26 | 107% | B5
27 | 105% | B6
28 | 95.7% | B7

The binders below were run against T1, human CD3ε/δ (ACRO systems, CDD-H52W1) (assay: serum-stability ELISA, Day 9 vs Day 0).
Procedure: as §1, §2, §3

Row | Binding % | Binder
29 | 101% | B1
30 | 103% | B2
31 | 105% | B3
32 | 95.6% | B4
33 | 108% | B5
34 | 105% | B6
35 | 98.8% | B7

The binders below were run against T1, human CD3ε/δ (ACRO systems, CDD-H52W1) (assay: serum-stability ELISA, Day 2 vs Day 0).
Procedure: as §1, §2, §3

Row | Binding % | Binder
36 | 102% | B1
37 | 85.3% | B2
38 | 102% | B3
39 | 95.1% | B4
40 | 103% | B5
41 | 99.3% | B6
42 | 96.1% | B7

These binders were tested against T1, human CD3ε/δ (ACRO systems, CDD-H52W1) (assay: serum-stability ELISA, Day 1 vs Day 0).
Procedure: as §1, §2, §3

Row | Binding % | Binder
43 | 105% | B1
44 | 103% | B2
45 | 105% | B3
46 | 95.1% | B4
47 | 102% | B5
48 | 96.5% | B6
49 | 95.7% | B7

These binders were tested against T1, human CD3ε/δ (ACRO systems, CDD-H52W1) (assay: serum-stability ELISA, Day 6 vs Day 0).
Procedure: as §1, §2, §3

Row | Binding % | Binder
50 | 101% | B1
51 | 101% | B2
52 | 103% | B3
53 | 99.3% | B4
54 | 105% | B5
55 | 100% | B6
56 | 97.4% | B7
